# In patent publication US20180155451A1 (published 2018):
# B1: GpH7-A5/GpH7-B3 variant E333_12R/GpL16-k0 (antibody, human IgG1, kappa)
# heavy 1: not shown
# heavy 2: not shown
# light: DIVMTQSPLSLPVTPGEPASISCQASESLVHSNRNTYLHWYLQKPGQSPQLLIYKVSNRFSGVPDRFSGSGSGTDFTLKISRVEAEDVGVYYCSQNTHVPPTFGQGTKVEIERTVAAPSVFIFPPSDEQLKSGTASVVCLLNNFYPREAKVQWKVDNALQSGNSQESVTEQDSKDSTYSLSSTLTLSKADYEKHKVYACEVTHQGLSSPVTKSFNRGEC
# notes: heterodimerized; also called He Ab E333_12R
# B2: GpH7-A5/GpH7-B3 variant L234_10E/GpL16-k0 (antibody, human IgG1, kappa)
# heavy 1: not shown
# heavy 2: not shown
# light: B1 light
# notes: heterodimerized; also called He Ab L234_10E; GpH7-A5/GpH7-B16/GpL16-k0
# B3: GpH7-A5/GpH7-B3 variant K326_16H/GpL16-k0 (antibody, human IgG1, kappa)
# heavy 1: not shown
# heavy 2: not shown
# light: B1 light
# notes: heterodimerized; also called He Ab K326_16H
# B4: GpH7-A5/GpH7-B3 variant K334_06M/GpL16-k0 (antibody, human IgG1, kappa)
# heavy 1: not shown
# heavy 2: not shown
# light: B1 light
# notes: heterodimerized; also called He Ab K334_06M
# B5: GpH7-A5/GpH7-B3 variant L234_07I/GpL16-k0 (antibody, human IgG1, kappa)
# heavy 1: not shown
# heavy 2: not shown
# light: B1 light
# notes: heterodimerized; also called He Ab L234_07I
# B6: GpH7-A5/GpH7-B3 variant P271_06M/GpL16-k0 (antibody, human IgG1, kappa)
# heavy 1: not shown
# heavy 2: not shown
# light: B1 light
# notes: heterodimerized; also called He Ab P271_06M
# B7: GpH7-A5/GpH7-B3 variant H268_02A/GpL16-k0 (antibody, human IgG1, kappa)
# heavy 1: not shown
# heavy 2: not shown
# light: B1 light
# notes: heterodimerized; also called He Ab H268_02A
# B8: GpH7-A5/GpH7-B3 variant Q295_02A/GpL16-k0 (antibody, human IgG1, kappa)
# heavy 1: not shown
# heavy 2: not shown
# light: B1 light
# notes: heterodimerized; also called He Ab Q295_02A
# B9: GpH7-A5/GpH7-B3 variant L328_03V/GpL16-k0 (antibody, human IgG1, kappa)
# heavy 1: not shown
# heavy 2: not shown
# light: B1 light
# notes: heterodimerized; also called He Ab L328_03V
# B10: GpH7-A5/GpH7-B3 variant I336_18N/GpL16-k0 (antibody, human IgG1, kappa)
# heavy 1: not shown
# heavy 2: not shown
# light: B1 light
# notes: heterodimerized; also called He Ab I336_18N
# B11: GpH7-A5/GpH7-B3 variant K326_14T/GpL16-k0 (antibody, human IgG1, kappa)
# heavy 1: not shown
# heavy 2: not shown
# light: B1 light
# notes: heterodimerized; also called He Ab K326_14T
# B12: GpH7-A5/GpH7-B3 variant P238_03V/GpL16-k0 (antibody, human IgG1, kappa)
# heavy 1: not shown
# heavy 2: not shown
# light: B1 light
# notes: heterodimerized; also called He Ab P238_03V
# B13: GpH7-A5/GpH7-B3 variant H268_14T/GpL16-k0 (antibody, human IgG1, kappa)
# heavy 1: not shown
# heavy 2: not shown
# light: B1 light
# notes: heterodimerized; also called He Ab H268_14T
# B14: GpH7-A5/GpH7-B3 variant P271_12R/GpL16-k0 (antibody, human IgG1, kappa)
# heavy 1: not shown
# heavy 2: not shown
# light: B1 light
# notes: heterodimerized; also called He Ab P271_12R
# B15: GpH7-A5/GpH7-B3 variant L328_20W/GpL16-k0 (antibody, human IgG1, kappa)
# heavy 1: not shown
# heavy 2: not shown
# light: B1 light
# notes: heterodimerized; also called He Ab L328_20W
# B16: GpH7-A5/GpH7-B3 variant H268_07I/GpL16-k0 (antibody, human IgG1, kappa)
# heavy 1: not shown
# heavy 2: not shown
# light: B1 light
# notes: heterodimerized; also called He Ab H268_07I
# B17: GpH7-A5/GpH7-B3 variant L328_10E/GpL16-k0 (antibody, human IgG1, kappa)
# heavy 1: not shown
# heavy 2: not shown
# light: B1 light
# notes: heterodimerized; also called He Ab L328_10E
# B18: GpH7-A5/GpH7-B3 variant G236_20W/GpL16-k0 (antibody, human IgG1, kappa)
# heavy 1: not shown
# heavy 2: not shown
# light: B1 light
# notes: heterodimerized; also called He Ab G236_20W; GpH7-A5/GpH7-B3-03-20W/GpL16-k0
# B19: GpH7-A5/GpH7-B3 variant I336_01G/GpL16-k0 (antibody, human IgG1, kappa)
# heavy 1: not shown
# heavy 2: not shown
# light: B1 light
# notes: heterodimerized; also called He Ab I336_01G
# B20: GpH7-A5/GpH7-B3 variant L234_03V/GpL16-k0 (antibody, human IgG1, kappa)
# heavy 1: not shown
# heavy 2: not shown
# light: B1 light
# notes: heterodimerized; also called He Ab L234_03V
# B21: GpH7-A5/GpH7-B3 variant H268_12R/GpL16-k0 (antibody, human IgG1, kappa)
# heavy 1: not shown
# heavy 2: not shown
# light: B1 light
# notes: heterodimerized; also called He Ab H268_12R
# B22: GpH7-A5/GpH7-B3 variant I336_04F/GpL16-k0 (antibody, human IgG1, kappa)
# heavy 1: not shown
# heavy 2: not shown
# light: B1 light
# notes: heterodimerized; also called He Ab I336_04F
# B23: GpH7-A5/GpH7-B3 variant K326_15Y/GpL16-k0 (antibody, human IgG1, kappa)
# heavy 1: not shown
# heavy 2: not shown
# light: B1 light
# notes: heterodimerized; also called He Ab K326_15Y
# B24: GpH7-A5/GpH7-B3 variant I336_03V/GpL16-k0 (antibody, human IgG1, kappa)
# heavy 1: not shown
# heavy 2: not shown
# light: B1 light
# notes: heterodimerized; also called He Ab I336_03V
# B25: GpH7-A5/GpH7-B3 variant P271_11K/GpL16-k0 (antibody, human IgG1, kappa)
# heavy 1: not shown
# heavy 2: not shown
# light: B1 light
# notes: heterodimerized; also called He Ab P271_11K
# B26: GpH7-A5/GpH7-B3 variant H268_20W/GpL16-k0 (antibody, human IgG1, kappa)
# heavy 1: not shown
# heavy 2: not shown
# light: B1 light
# notes: heterodimerized; also called He Ab H268_20W
# B27: GpH7-A5/GpH7-B3 variant E333_15Y/GpL16-k0 (antibody, human IgG1, kappa)
# heavy 1: not shown
# heavy 2: not shown
# light: B1 light
# notes: heterodimerized; also called He Ab E333_15Y
# B28: GpH7-A5/GpH7-B3 variant K334_20W/GpL16-k0 (antibody, human IgG1, kappa)
# heavy 1: not shown
# heavy 2: not shown
# light: B1 light
# notes: heterodimerized; also called He Ab K334_20W
# B29: GpH7-A5/GpH7-B3 variant L234_04F/GpL16-k0 (antibody, human IgG1, kappa)
# heavy 1: not shown
# heavy 2: not shown
# light: B1 light
# notes: heterodimerized; also called He Ab L234_04F
# Target: T1, FcγRIa (human, UniProt P12314 16-292)
# T1 construct: extracellular domain; also called FcgRI; CD64
# T1 sequence (P12314 16-292): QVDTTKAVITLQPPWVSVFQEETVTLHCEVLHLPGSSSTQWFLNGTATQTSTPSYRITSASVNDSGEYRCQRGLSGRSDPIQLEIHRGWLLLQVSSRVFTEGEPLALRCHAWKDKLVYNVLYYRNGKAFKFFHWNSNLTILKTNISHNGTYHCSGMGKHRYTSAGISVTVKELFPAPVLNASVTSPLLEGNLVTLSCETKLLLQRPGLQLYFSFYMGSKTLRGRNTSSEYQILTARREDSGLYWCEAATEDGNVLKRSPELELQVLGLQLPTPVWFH
# Assay: SPR; vs GpH7-A5/GpH7-B3/GpL16-k0=100
row,He/Con_1a,Binder
1,102 % of control,B1
2,100 % of control,B2
3,103 % of control,B3
4,105 % of control,B4
5,103 % of control,B5
6,102 % of control,B6
7,109 % of control,B7
8,104 % of control,B8
9,101 % of control,B9
10,108 % of control,B10
11,104 % of control,B11
12,100 % of control,B12
13,112 % of control,B13
14,102 % of control,B14
15,103 % of control,B15
16,108 % of control,B16
17,101 % of control,B17
18,105 % of control,B18
19,109 % of control,B19
20,104 % of control,B20
21,106 % of control,B21
22,106 % of control,B22
23,106 % of control,B23
24,105 % of control,B24
25,103 % of control,B25
26,107 % of control,B26
27,101 % of control,B27
28,106 % of control,B28
29,101 % of control,B29
